Square brackets hold non-standard residues; d marks the D form. Peptide text beside a SMILES is read from it. * marks the point of attachment. X3 = O=C(CCCCCNCc1nc2c(sc3cc(Br)cnc32)c(=O)[nH]1)*
Experiments:
Test in all cases: Kinase profiling (radiometric filter-binding)
Assay type in all cases: biochemical
EPH-B1 = target: T1, EPH-B1 (Homo sapiens, UniProt P54762); conditions: EPH-B1, 1 µM inhibitor; read-out: Residual activity, %
T1 sequence (P54762 18-984): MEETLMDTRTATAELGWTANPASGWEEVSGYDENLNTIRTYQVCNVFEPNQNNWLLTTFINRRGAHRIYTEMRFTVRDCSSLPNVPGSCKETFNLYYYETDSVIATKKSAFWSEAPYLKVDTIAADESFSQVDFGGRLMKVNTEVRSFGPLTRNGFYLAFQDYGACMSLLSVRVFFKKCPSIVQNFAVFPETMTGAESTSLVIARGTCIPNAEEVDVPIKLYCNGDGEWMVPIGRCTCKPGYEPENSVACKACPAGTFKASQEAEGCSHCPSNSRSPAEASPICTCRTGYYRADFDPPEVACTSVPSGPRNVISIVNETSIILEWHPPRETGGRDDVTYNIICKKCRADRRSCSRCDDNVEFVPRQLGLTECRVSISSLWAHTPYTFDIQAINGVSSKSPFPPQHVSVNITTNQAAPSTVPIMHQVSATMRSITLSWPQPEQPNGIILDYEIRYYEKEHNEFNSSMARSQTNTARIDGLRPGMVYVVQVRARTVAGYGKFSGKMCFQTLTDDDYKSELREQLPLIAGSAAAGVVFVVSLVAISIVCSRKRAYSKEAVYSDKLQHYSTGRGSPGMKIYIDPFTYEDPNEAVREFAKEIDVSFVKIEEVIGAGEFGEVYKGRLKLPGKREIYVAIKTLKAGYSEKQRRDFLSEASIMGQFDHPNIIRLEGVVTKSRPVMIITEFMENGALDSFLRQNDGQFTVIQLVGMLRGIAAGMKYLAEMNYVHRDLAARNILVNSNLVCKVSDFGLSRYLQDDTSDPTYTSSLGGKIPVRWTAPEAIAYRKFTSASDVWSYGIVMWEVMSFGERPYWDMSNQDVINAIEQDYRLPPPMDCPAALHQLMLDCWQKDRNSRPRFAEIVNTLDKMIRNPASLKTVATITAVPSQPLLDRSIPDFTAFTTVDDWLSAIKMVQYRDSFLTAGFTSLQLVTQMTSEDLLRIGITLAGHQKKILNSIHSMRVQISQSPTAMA
Protocol: (§1) Kinase selectivity profiling was performed using the commercial service provided by the MRC PPU International Centre for Kinase Profiling (Dundee, UK) using a radiometric filter-binding assay. Kinases used for analysis were of human origin. The ATP concentration applied for inhibition measurements was at or below the ATP KM value of the particular PK. ARC-3125 and ARC-3126 were screened against 139 PKs, whereas compounds 1, 2, and 8 were screened against 140 PKs. The final total concentration of inhibitors in the selectivity panel was 1 µM. Residual activities were expressed as the percentage of retained activity compared to the control without inhibitor.

ERK8 = target: T2, ERK8 (Homo sapiens, UniProt Q8TD08); conditions: ERK8, 1 µM inhibitor; read-out: Residual activity, %
T2 sequence (Q8TD08 1-544): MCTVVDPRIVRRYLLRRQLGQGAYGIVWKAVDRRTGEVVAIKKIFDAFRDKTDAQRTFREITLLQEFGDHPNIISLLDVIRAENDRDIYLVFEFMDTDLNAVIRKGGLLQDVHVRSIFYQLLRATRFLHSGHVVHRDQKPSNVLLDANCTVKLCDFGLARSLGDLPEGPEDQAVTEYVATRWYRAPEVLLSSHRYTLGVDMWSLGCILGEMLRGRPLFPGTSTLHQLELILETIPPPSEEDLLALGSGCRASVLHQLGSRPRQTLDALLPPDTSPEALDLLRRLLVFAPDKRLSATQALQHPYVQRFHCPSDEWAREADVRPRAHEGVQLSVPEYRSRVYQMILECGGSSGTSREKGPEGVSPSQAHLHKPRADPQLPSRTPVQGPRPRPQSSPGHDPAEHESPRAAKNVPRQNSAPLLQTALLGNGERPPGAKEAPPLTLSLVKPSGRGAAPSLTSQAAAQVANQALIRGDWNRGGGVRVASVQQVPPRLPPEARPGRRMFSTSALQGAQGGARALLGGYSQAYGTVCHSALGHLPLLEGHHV
Protocol: as §1

MARK4 = target: T3, MARK4 (Homo sapiens, UniProt Q96L34); conditions: MARK4, 1 µM inhibitor; read-out: Residual activity, %
T3 sequence (Q96L34 1-752): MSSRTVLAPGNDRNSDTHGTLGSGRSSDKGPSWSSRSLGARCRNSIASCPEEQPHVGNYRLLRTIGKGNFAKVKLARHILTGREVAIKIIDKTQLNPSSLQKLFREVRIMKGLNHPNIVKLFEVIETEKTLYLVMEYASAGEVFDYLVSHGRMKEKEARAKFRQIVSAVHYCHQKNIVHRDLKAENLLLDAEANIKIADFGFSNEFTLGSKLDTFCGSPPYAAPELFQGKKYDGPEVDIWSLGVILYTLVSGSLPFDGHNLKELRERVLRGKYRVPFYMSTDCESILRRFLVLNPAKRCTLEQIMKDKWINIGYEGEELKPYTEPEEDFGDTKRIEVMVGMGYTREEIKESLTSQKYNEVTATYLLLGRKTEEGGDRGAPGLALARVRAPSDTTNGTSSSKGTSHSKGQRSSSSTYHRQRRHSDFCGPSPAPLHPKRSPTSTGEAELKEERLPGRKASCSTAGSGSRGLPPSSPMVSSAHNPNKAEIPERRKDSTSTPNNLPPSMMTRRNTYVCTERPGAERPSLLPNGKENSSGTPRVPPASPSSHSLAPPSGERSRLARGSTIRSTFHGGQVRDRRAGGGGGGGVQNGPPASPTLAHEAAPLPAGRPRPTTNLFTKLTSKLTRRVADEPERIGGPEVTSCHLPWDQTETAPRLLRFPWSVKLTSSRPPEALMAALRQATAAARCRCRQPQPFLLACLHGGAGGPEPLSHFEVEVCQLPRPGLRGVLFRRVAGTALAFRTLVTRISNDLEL
Protocol: as §1

PAK2 = PAK2 (Homo sapiens, UniProt Q13177); conditions: PAK2, 1 µM inhibitor; read-out: Residual activity, %
Protocol: as §1

PLK1 = PLK1 (Homo sapiens, UniProt P53350); conditions: PLK1, 1 µM inhibitor; read-out: Residual activity, %
Protocol: as §1

Sequence of PAK2 (Q13177 whole entry): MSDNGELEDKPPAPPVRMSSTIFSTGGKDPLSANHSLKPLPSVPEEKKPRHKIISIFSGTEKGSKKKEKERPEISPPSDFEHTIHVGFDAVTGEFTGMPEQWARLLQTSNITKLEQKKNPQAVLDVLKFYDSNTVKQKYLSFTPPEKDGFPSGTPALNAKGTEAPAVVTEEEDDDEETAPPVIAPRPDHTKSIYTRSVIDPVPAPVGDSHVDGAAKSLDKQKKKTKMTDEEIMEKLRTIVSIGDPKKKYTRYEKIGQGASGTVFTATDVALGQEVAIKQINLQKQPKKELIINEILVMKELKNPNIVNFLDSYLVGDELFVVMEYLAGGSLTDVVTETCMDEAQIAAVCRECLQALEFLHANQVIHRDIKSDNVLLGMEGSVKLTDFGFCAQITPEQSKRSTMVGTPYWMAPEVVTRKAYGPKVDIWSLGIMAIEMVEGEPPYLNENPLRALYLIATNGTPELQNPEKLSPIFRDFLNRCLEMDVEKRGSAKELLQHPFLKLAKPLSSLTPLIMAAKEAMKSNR
Sequence of PLK1 (P53350 whole entry): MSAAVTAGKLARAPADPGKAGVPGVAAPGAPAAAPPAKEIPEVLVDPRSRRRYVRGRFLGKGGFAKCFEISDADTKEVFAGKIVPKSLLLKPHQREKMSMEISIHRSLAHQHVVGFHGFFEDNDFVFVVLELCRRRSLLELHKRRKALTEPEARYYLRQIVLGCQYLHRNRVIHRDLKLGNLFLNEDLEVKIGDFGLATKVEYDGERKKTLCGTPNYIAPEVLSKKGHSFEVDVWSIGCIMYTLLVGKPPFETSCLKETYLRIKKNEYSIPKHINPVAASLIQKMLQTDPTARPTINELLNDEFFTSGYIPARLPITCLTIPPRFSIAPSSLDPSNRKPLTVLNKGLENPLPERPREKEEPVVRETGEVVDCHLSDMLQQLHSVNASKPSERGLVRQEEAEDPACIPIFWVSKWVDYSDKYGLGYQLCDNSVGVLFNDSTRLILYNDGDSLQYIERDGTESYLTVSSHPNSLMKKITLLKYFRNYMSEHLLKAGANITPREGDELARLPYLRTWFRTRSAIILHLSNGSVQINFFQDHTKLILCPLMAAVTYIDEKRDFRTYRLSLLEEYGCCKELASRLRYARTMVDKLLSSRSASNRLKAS

| SMILES | remaining activity at 1 µM (EPH-B1) [%] | remaining activity at 1 µM (ERK8) [%] | remaining activity at 1 µM (MARK4) [%] | remaining activity at 1 µM (PAK2) [%] | remaining activity at 1 µM (PLK1) [%] |
| --- | --- | --- | --- | --- | --- |
| N=C(N)NCCC[C@@H](NC(=O)CCCCCNC(=O)Cn1cnc2c(I)c(I)c(I)c(I)c21)C(=O)N[C@H](CCCNC(=N)N)C(=O)N[C@H](CCCNC(=N)N)C(=O)N[C@H](CCCNC(=N)N)C(=O)N[C@H](CCCNC(=N)N)C(=O)N[C@H](CCCNC(=N)N)C(=O)N[C@H](CCCCN)C(N)=O [ARC-3125, TIBI-CH2-C(=O)-Ahx-(D-Arg)6-D-Lys-NH2] | 106 ± 12 | 18 ± 9 | 92 ± 3 | 29 ± 4 | 40 ± 4 |
| N=C(N)NCCC[C@@H](NC(=O)CCCCCNCc1nc2c(sc3cc(Br)cnc32)c(=O)[nH]1)C(=O)N[C@H](CCCNC(=N)N)C(=O)N[C@H](CCCNC(=N)N)C(=O)N[C@H](CCCNC(=N)N)C(=O)N[C@H](CCCNC(=N)N)C(=O)N[C@H](CCCNC(=N)N)C(=O)N[C@H](CCCCN)C(N)=O [ARC-3126, BPTP-Ahx-(D-Arg)6-D-Lys-NH2] (X3-[dR][dR][dR][dR][dR][dR][dK]-NH2) | 96 ± 6 | 49 ± 30 | 119 ± 7 | 72 ± 5 | 50 ± 16 |
| N=C(N)NCCC[C@@H](NC(=O)CNC(=O)[C@@H](CCCNC(=N)N)NC(=O)[C@@H](CCCNC(=N)N)NC(=O)CCCCCCCNCc1nc2c(sc3cc(Br)cnc32)c(=O)[nH]1)C(=O)N[C@H](CCCCN)C(N)=O [Compound 1, BPTP-Aoc-(D-Arg)2-Gly-D-Arg-D-Lys-NH2] | 103 ± 9 | 109 ± 8 | 124 ± 14 | 99 ± 9 | 99 ± 1 |
| N=C(N)NCCC[C@@H](NC(=O)CNC(=O)[C@@H](CCCNC(=N)N)NC(=O)[C@@H](CCCNC(=N)N)NC(=O)CCCCCCCNCc1nc2c(sc3ccc(Br)cc32)c(=O)[nH]1)C(=O)N[C@H](CCCCN)C(N)=O [Compound 2, BBTP-Aoc-(D-Arg)2-Gly-D-Arg-D-Lys-NH2] | 99 ± 15 | 78 ± 17 | 128 ± 3 | 100 ± 10 | 99 ± 1 |
| N=C(N)NCCC[C@@H](NC(=O)CNC(=O)[C@@H](CCCNC(=N)N)NC(=O)[C@@H](CCCNC(=N)N)NC(=O)Cn1cc(CNCc2nc3c(sc4ccc(Br)cc43)c(=O)[nH]2)nn1)C(=O)N[C@H](CCCCN)C(N)=O [Compound 3, BBTP-Amt-(D-Arg)2-Gly-D-Arg-D-Lys-NH2] | 106 ± 11 | 83 ± 2 | 90 ± 12 | 91 ± 4 | 97 ± 7 |

Source: PMC8307404, “Crystal Structure-Guided Design of Bisubstrate Inhibitors and Photoluminescent Probes for Protein Kinases of the PIM Family” (Molecules, 2021)
